# The supplement of paper PMC12042874
# ± gives the uncertainty stated by the source.
# Test: amyloid nucleation score (Sup35N fusion, yeast selection) (log enrichment); library NNK1; higher = more nucleation; inactive = no reads after selection
# In short: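 In psi-negative yeast, Sup35N fusions carrying peptides of 20 random codons were induced with 100 μM copper sulfate for 24 hours. The cells then grew 7 days at 30°C on medium lacking adenine and uracil, and plasmid inserts from input and output were Illumina-sequenced, excluding sequences with under 100 input reads. Nucleation score is the DiMSum log enrichment of output over input reads, centred on the mode score of non-aggregating sequences.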
row,Substance,amyloid nucleation score
1,ALRIHGLCFEVVCMRIWSRR,0.436 ± 0.46
2,LLRLLVRAVMFFWAWGSRGA,inactive
3,LPFNVL,3.09 ± 0.2
4,NVLVGFI,-0.851 ± 0.56
5,VRENLNMLEIHRLGGVKKCV,-1.06 ± 0.95
6,RGYSGTTTHAATATKLS,1.56 ± 0.78
7,INYFRWGDIFVYSNSKSSRL,0.511 ± 0.17
8,SSCLEGCKSEACGWSNDGPG,-0.048 ± 0.76
9,SKAWNRAGELVVSCTMVS,inactive
10,NLSTSMSRREIMQQHQHRRL,0.594 ± 0.64
11,KRPHGDH,0.416 ± 0.73
12,FLVHSTGGHVNISFTSVIYL,7.889 ± 0.048
13,VNSNGTPCSMGIHMSGSYSP,0.226 ± 0.48
14,VQAVIWWRGRDYGRHRSRPW,-0.35 ± 0.35
15,SFYYWHPIALVWYGGARYKC,1.35 ± 0.43
16,NVTCSVISNGNLSEFDVFVI,0.122 ± 0.75
17,AYLGASREIYCYGPMYYMLP,2.97 ± 0.098
18,FIHAMAMCILGEHSI,0.686 ± 0.47
19,KNYLLSLGVCNFQSYPHKCW,4.22 ± 0.16
20,GSTTSLRFTVLQTFLFSCNN,-0.663 ± 0.8
21,SDFNNTFIYSGEKQVLISTC,-0.147 ± 0.34
22,NYVYR,-0.742 ± 1.2
23,YLPVYNY,0.487 ± 0.65
24,ILSIFLYWAILLRSCQYLYW,-0.949 ± 0.4
25,PVCGFRRWKCLPN,0.318 ± 0.66

row,Substance,amyloid nucleation score
1,QSPKQILWR,1.11 ± 0.63
2,LYESYDMVEKQDRTWSKGSS,0.281 ± 0.65
3,YKSSILPTEFGFACKPWGHL,0.3 ± 0.55
4,RWMPFISLSVNLTGNYLIRL,2.25 ± 0.27
5,RMIDMGTDTVFCLMSFARIN,-0.354 ± 0.22
6,GTRQSDHYCVSTGLCV,0.352 ± 0.36
7,WCRDLHKLYLY,-0.2 ± 0.56
8,KNFHELTVDYVCVLYREQLF,0.115 ± 0.26
9,LTTPSFYLAGCSSS,-0.059 ± 0.36
10,NMTVITVVSWLCFVRRTHNA,-1.06 ± 0.82
11,ATKSRLVNILTGKDEALTGL,-0.684 ± 0.42
12,FSVWGLRLTRARMQTERVLL,0.86 ± 0.59
13,GFIQWLMLWRVFFSM,-0.681 ± 0.39
14,GTLVLYFCGVC,6.62 ± 0.059
15,NYRIRAWGNNYGHQGATCLR,inactive
16,AEAISSYHGWSYYLHHTPFS,0.654 ± 1.2
17,ALLHVNLIVGNYTSGG,3.28 ± 0.13
18,HSEIHVALYCASVML,3.38 ± 0.097
19,LYVEYKRAMCVMGVSLWVN,0.224 ± 0.19
20,YNSRRAWDACCFGLVPLWEC,2.08 ± 0.3
21,WLETRP,-0.226 ± 0.33
22,FCLSMVVDWVGR,-0.342 ± 0.31
23,MSFTSAY,-0.238 ± 0.56
24,CNSFCGMHCGNV,0.238 ± 0.62
25,GPDRCDRWEPRCCAKSRRER,-0.061 ± 0.42

row,Substance,amyloid nucleation score
1,MRVTFHYFS,-0.434 ± 1.7
2,VYRIAMIF,1.22 ± 0.31
3,YVDDGMCSAICYSTVNNMSN,8.666 ± 0.047
4,REDAYR,-0.429 ± 0.91
5,NPRVNNYRVNGWKRGIRDRA,0.66 ± 0.35
6,KNLKW,0.476 ± 0.97
7,NSLKCVRSIVKRYSACHRV,0.387 ± 0.5
8,MSLYYPSFDQPITKRVRLFF,-0.82 ± 1.4
9,CTLSYCWWMAQYPDISRLIT,-0.362 ± 0.74
10,IMWSKENWDGG,-0.649 ± 0.44
11,AQVNLIPNLRETLYDPAISR,0.665 ± 0.55
12,AELILFIVLELMKRAFLSS,-0.795 ± 0.4
13,ASGDMSDWISWLGSMRCKIR,-0.082 ± 1
14,LCAMIPAVGRYWSCVVGHSV,-0.013 ± 1.6
15,WSLPAVRRCHNELEYCNTRR,0.107 ± 0.34
16,GFRSGSCGFGIL,-1.14 ± 0.48
17,TAFVILLDHGGCDSRVIYEG,0.043 ± 0.69
18,LVKLIWRISAWHSWFVSR,1.48 ± 0.8
19,MMSFVEKPQGESSSNEWGVN,-0.777 ± 2.4
20,IRDTLNVCNKEEQKSRGS,-0.358 ± 0.37
21,IIFNYPNPIYLNAKEVMLYI,6.52 ± 0.067
22,CACKLVQSIYLCESLGHPRS,5.73 ± 0.06
23,IMTESCCG,0.743 ± 0.54
24,LYSKLSALEFMQLAIQSHLD,1.96 ± 0.15
25,MLYKIRDQIYIRHGSFEG,0.224 ± 0.28

row,Substance,amyloid nucleation score
1,RYCYRGHMFLFQTSLFKCSS,-0.354 ± 0.83
2,IIHFKSGIWNATDGCLIMCV,0.793 ± 0.65
3,SKRCWGDGMDTFSAIVEAIW,-0.128 ± 0.54
4,HNHRRQDGIRNA,1.12 ± 0.14
5,GNKPLVVHGSGGICKLCE,-0.147 ± 0.38
6,FNLGSGDWL,-0.842 ± 0.65
7,YSLSNVEGYYTYYYRT,-0.071 ± 0.28
8,SGNSSFIVILNKRTFRLCRY,1.41 ± 0.18
9,LRAFR,1.81 ± 0.33
10,WDDSINCTTK,inactive
11,CGFVEMTSRSKIHSLICWPG,1.53 ± 0.44
12,VRFSLHDRGRQTRTCYSPWA,0.006 ± 0.36
13,GCSLLHLRVWYLSDHIIMRS,0.834 ± 0.36
14,FYRSQMIFFYMLVAPMWGRL,-0.599 ± 0.56
15,KSDNVVTRLRLLSAEVQW,-0.295 ± 0.98
16,LSYDSYSYIGLGGSLEIFWA,0.182 ± 0.71
17,RLFLKPAQWPNH,0.562 ± 0.67
18,IEFLAILLVAAMVQ,-0.345 ± 1.2
19,ISGFMLQVLTRRYSWMSA,-0.498 ± 0.88
20,YQQSCWVLYGTNLRYSNQSW,1.74 ± 0.14
21,RSCELGFDPVKKFFRIRIWG,-0.006 ± 0.47
22,TCVSYTP,1.75 ± 0.56
23,LLVCSMHFISMTPVMPNSTA,2.12 ± 0.24
24,QSLSLVVPDIVMIKTPN,inactive
25,LCLRVEGGNKPTEHCITSPT,-0.234 ± 0.43

row,Substance,amyloid nucleation score
1,IKNKGRYVFETPGL,0.13 ± 0.87
2,IKLTPLMLRTTELV,-1.32 ± 0.5
3,CPVCNTESTCRYPRVGKWDT,3.01 ± 0.17
4,YFKEFWIWLW,inactive
5,RAISVLPIMSVRAH,0.085 ± 0.25
6,CRISTGNGVI,inactive
7,CTTLGLQPFRDWRFAGKLAR,0.049 ± 1.1
8,YHNFNSV,0.164 ± 0.34
9,SVASGVMFRAYCFWWAARKV,0.27 ± 0.47
10,TEYVTLLGLSLGFVLASLGA,0.283 ± 0.43
11,LVLANTDSLTLWFLVTYLTC,-0.42 ± 0.62
12,GHDLSVPWRTDWLRGL,0.177 ± 1.2
13,EDSLPLDMEVNLGRIVEPKM,1.14 ± 0.59
14,CYGGWVYLLRIALCGEDSVI,0.58 ± 0.58
15,QMDMCDYERFYLA,inactive
16,KSKIQDLCCPSRPVVGMVCL,0.239 ± 0.43
17,KYASVGASFVWC,0.102 ± 0.34
18,LVMCVFLSASVYVFPTHLSS,-1.18 ± 1.4
19,SCRSLDAMDKSWS,1.5 ± 0.52
20,RRSCRRTGGTSASKPSRQAF,0.013 ± 0.45
21,VVNGTMFINPCYVQGRCKEM,4.63 ± 0.067
22,KFSFCKS,0.207 ± 0.31
23,EVENRFVCGNSDLSGNDANK,-0.489 ± 0.75
24,NFDNYVLLPLALTC,inactive
25,EQVSKMGNTCMSVDRVRWQN,-0.411 ± 0.87

row,Substance,amyloid nucleation score
1,GNWAVGSIRDSCICGYIELR,6.915 ± 0.046
2,VEYVQYFWSSGGVYGSDTGW,0.024 ± 0.76
3,FLLNSPQNASYSPHRRLAFD,-1.38 ± 0.92
4,MVKRRV,-0.232 ± 1.2
5,VALWYFCCVVAYYGGARLVS,2.06 ± 0.33
6,VVTWVYASSVVLSSLPREGA,-0.115 ± 0.26
7,FPGSRDPGVNRSWSYNSIDT,1.87 ± 0.14
8,MMFLTNCCFMVLNCYTCVRY,3.53 ± 0.066
9,KALVADC,0.001 ± 0.34
10,SDRKEA,-0.444 ± 0.69
11,LDILDLVRTNVIRTKKPFEI,-0.348 ± 0.83
12,MSGWG,0.167 ± 0.27
13,CTFTY,0.053 ± 1.1
14,LLLAY,-0.716 ± 0.44
15,FCMWKGAFDRDYVGNGVAGS,inactive
16,ALKHPML,-0.815 ± 0.49
17,YFYFLVNISFISIKGCLFMP,0.121 ± 0.4
18,GNFCFPMAYTGLVFGEMLSF,0.1 ± 0.24
19,ALKGSRHDL,-0.037 ± 0.73
20,HRRRYAVNFSVEIMIRALG,-1 ± 1.6
21,FASLFYKLQASLFTLDNIMH,-0.006 ± 0.88
22,TTALDFRMDAMEVFRRFDEA,0.14 ± 0.39
23,VKATLSFSQFLHVVSYWGF,-0.342 ± 0.71
24,KGLIKDNCNTSGGEFNCGY,-0.278 ± 0.21
25,CYHQFGV,inactive

row,Substance,amyloid nucleation score
1,TGYVIGWVSWTSWWEMGLYR,-2.43 ± 2.4
2,INLGFLWTCARDAVFLYDLS,2.31 ± 0.17
3,ALKLARG,-0.019 ± 1.2
4,EKQCVVDFL,-1.26 ± 1.7
5,SVPKLKAEVE,-0.273 ± 0.2
6,LILHSNSGFNGYWVSQWNTM,-0.304 ± 0.44
7,SFLDCLRCCKCAGMR,1.5 ± 0.18
8,RHCPLAVFRKSPLLAIGKFG,-0.685 ± 0.66
9,ITKNRPARNRLLRTGMYFLL,0.004 ± 0.29
10,IVDVVLSMGLLYLTSVNY,-0.369 ± 0.74
11,NLGMALRSCMTSTHSVSMW,0.433 ± 0.47
12,LFVNM,inactive
13,LFSRVFSAANVIRHNFLFME,0.746 ± 0.9
14,INHVMHGMEVRRGVNGRWMY,0.312 ± 1.1
15,FDGKLW,-0.53 ± 0.61
16,SYFVIFSGTM,inactive
17,YSESVCSLLPQYSPVHPLFT,0.891 ± 0.97
18,QGSDSSNEATTAPLCRLRIW,1.11 ± 0.94
19,ASYMYAPSIFYSERLKWNPS,0.226 ± 0.78
20,RVVVCRWVDRYGIAASGAIT,0.643 ± 0.54
21,RWNRSSDTCLCLHSMMLT,-0.518 ± 1.1
22,YFKAMEVTFSFWH,0.491 ± 0.23
23,YSLYTNSHVPAWHSPSISHG,-0.38 ± 0.82
